Data taken from US20180112008A1 (Memorial Sloan Kettering, published 2018).
Where a chain is given by its changes, count along the chain named. Ends that are not written are not given here. * marks the point of attachment. GlcNAc2 = N-linked chitobiose, CC(=O)N[C@@H]1[C@@H](O)[C@H](O[C@@H]2O[C@H](CO)[C@@H](O)[C@H](O)[C@H]2NC(C)=O)[C@@H](CO)O[C@H]1*

Tests used:
[1] = target: GlcNAc2-15-mer glycopeptide, unconjugated (human); test: ELISA 12/24/13 (sups from time of freezing), neat, column 15S
[2] = target: (GlcNAc2)2-18-mer glycopeptide, unconjugated (human); test: sandwich ELISA on 'MUC16 18mer + GlcNAc2'; Blank 0.029
[3] = target: MUC16 unrelated peptide 18mer+GlcNAc2; test: sandwich ELISA on 'MUC16 unrelated 18mer + GlcNAc2'; Blank 0.014
[4] = target: (GlcNAc2)2-18-mer glycopeptide, unconjugated (human); test: ELISA 12/24/13 (sups from time of freezing), neat, column 18S
[5] = target: GlcNAc2-15-mer glycopeptide, unconjugated (human); test: sandwich ELISA on 'MUC16 15mer + GlcNAc2'; Blank 0.019
MUC16^c114 (human) [6] = test: FACS, SKOV3 transfectant, goat anti-mouse IgG-PE
MUC16^c114 (human) [7] = test: FACS of transfected cells; vector control phrGFP 7.9; cell line not given
MUC16^c114 (human) [8] = test: FACS, SKOV3-c114
[9] = target: MUC16^c114 on SKOV3 cells with MGAT5 knock-down (human); test: FACS, SKOV3-shMGAT5-c114
[10] = target: non-glycosylated 15-mer MUC16 peptide (human); test: ELISA 12/24/13 (sups from time of freezing), neat, column 15
MUC16^c114 (human) [11] = test: FACS of transfected cells; vector control phrGFP 3.7; cell line not given
MUC16^c114 (human) [12] = test: FACS of transfected cells; vector control phrGFP 11.4; cell line not given
MUC16 18mer [13] = test: ELISA 12/24/13 (sups from time of freezing), neat, column 18
[14] = target: MUC16 unrelated peptide 18mer; test: sandwich ELISA on 'MUC16 unrelated peptide 18mer'; Blank 0.013
MUC16 18mer [15] = test: sandwich ELISA on 'MUC16 18mer'; Blank 0.032
[16] = target: non-glycosylated 15-mer MUC16 peptide (human); test: sandwich ELISA on 'MUC16 15mer'; Blank 0.021
[17] = target: EGFR (endogenous, MUC16^c114-expressing 3T3 cells) (Mus musculus (Mouse), UniProt Q01279 25-1210); test: co-precipitation from MUC16^c114-expressing 3T3 cells with MUC16-targeting antibodies, western blot
[18] = target: HER3 (endogenous, MUC16^c114-expressing 3T3 cells) (Mus musculus (Mouse), UniProt Q61526 20-1339); test: as above
HER3 (endogenous, MUC16^c114-expressing 3T3 cells), sequence (Q61526 20-1339 limits assumed): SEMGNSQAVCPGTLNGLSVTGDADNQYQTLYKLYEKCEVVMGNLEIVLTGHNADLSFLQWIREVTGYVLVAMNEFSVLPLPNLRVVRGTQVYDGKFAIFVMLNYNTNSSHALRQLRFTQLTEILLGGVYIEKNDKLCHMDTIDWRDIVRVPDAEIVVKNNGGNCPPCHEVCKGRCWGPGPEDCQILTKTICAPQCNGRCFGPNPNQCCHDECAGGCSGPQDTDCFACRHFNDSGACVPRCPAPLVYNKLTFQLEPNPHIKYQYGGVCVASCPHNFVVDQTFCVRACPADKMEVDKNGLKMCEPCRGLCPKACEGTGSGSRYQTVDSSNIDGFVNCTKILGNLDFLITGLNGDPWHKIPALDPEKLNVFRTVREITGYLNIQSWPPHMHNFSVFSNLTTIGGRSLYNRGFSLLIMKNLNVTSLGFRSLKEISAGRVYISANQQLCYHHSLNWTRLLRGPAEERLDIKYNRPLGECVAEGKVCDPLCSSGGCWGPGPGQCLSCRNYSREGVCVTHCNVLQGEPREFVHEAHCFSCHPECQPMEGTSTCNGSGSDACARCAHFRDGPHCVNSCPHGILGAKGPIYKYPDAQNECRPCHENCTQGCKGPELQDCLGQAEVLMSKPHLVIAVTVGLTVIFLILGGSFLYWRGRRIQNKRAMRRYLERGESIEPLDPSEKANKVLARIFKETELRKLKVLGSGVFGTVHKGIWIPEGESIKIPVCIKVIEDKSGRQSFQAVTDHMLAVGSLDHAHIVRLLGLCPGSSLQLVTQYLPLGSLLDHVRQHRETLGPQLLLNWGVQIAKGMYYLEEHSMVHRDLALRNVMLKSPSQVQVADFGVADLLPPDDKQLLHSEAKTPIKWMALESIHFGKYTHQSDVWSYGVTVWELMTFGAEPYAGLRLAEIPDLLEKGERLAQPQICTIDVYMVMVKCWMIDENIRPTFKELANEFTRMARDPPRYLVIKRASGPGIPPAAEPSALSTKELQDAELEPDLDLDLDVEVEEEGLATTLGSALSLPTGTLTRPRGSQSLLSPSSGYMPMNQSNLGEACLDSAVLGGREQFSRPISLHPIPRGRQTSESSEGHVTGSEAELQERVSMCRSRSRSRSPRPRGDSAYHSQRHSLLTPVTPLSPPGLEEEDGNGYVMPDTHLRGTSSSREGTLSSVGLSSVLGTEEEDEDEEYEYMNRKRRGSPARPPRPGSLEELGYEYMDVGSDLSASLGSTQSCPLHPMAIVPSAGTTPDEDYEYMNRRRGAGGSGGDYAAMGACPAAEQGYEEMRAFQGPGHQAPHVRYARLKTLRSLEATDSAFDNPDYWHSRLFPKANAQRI

[19] = target: T1, (GlcNAc2)2-18-mer glycopeptide, unconjugated (human); test: ELISA 12/24/13 (sups from time of freezing), dilution 400, column 18S
T1 construct: Used in ELISA without KLH; also called 18-mer(chitobiose)2[C-T22-V38]; 18mer-chitobiose peptide
T1 peptide: Ac-CTRN(GlcNAc2)GTQLQN(GlcNAc2)FTLDRSSV-NH2

MUC16 18mer [20] = target: T2, MUC16 18mer (not fully specified); test: ELISA during fusion screen, dilution 400, column 18
T2 construct: also called non-glycosylated 18-mer MUC16 peptide
T2 peptide: CTRNGTQLQNFTLDRSSV

MUC16 18mer [21] = target: T2, MUC16 18mer; test: ELISA 12/24/13 (sups from time of freezing), dilution 400, column 18
[22] = target: T3, biotinylated chitobiose-conjugated 18-mer glycopeptide (human, also: biotinylated, site not given here); test: BLI (Octet QK), biotinylated glycopeptide on streptavidin sensor, antibody 10 ug/mL, 1:1 model
T3 construct: Cys plus T22-V38 of MUC16^c114; The range is derived from T22-V38 and the statement that c114 is 1777-1890; also called (GlcNAc2)2-18-mer, biotinylated; 18-mer(chitobiose)2[C-T22-V38]
T3 peptide: Ac-CTRN(GlcNAc2)GTQLQN(GlcNAc2)FTLDRSSV-NH2
Description: Binding affinity was determined using ForeBio Octet QK. 5 μg/mL of biotinylated chitobiose-conjugated 18-mer glycopeptide was loaded onto a streptavidin biosensor. After washing off excess antigen, mouse antibodies were tested at 10 μg/mL for association and dissociation steps, respectively. Binding parameters were calculated using 1:1 binding site model, partial fit.

[23] = target: T4, GlcNAc2-15-mer glycopeptide, unconjugated (human); test: ELISA 12/24/13 (sups from time of freezing), dilution 400, column 15S
T4 construct: Cys plus G25-V38 of MUC16^c114; Used in ELISA without KLH; also called 15-mer(chitobiose)[C-G25-V38]; 15mer-chitobiose peptide
T4 peptide: Ac-CGTQLQN(GlcNAc2)FTLDRSSV-NH2

[24] = target: T5, non-glycosylated 15-mer MUC16 peptide (human); test: ELISA 12/24/13 (sups from time of freezing), dilution 400, column 15
T5 construct: Same peptide as the GlcNAc2-15-mer without the glycan; also called unglycosylated 15-mer
T5 peptide: CGTQLQNFTLDRSSV

[25] = target: T1, (GlcNAc2)2-18-mer glycopeptide, …; test: ELISA during fusion screen, dilution 400, column 18S
[26] = target: T6, MUC16 nonglycosylated peptide 2 (human); test: sandwich ELISA on 'MUC16 Nonglycosylated Peptide2'; Blank 0.029
T6 construct: Peptide used to elicit the 4H11 antibody; also called nonglycosylated MUC16 peptide 2
T6 peptide: CTLDRSSVLVDGYSPNRNE

MUC16^c86 = target: T7, MUC16^c86; test: FACS of transfected cells; vector control phrGFP 11.4; cell line not given
T7 construct: also called Internal Deletion
T7 single chain: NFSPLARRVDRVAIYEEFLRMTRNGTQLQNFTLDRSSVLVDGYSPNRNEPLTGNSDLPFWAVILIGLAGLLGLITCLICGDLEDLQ

MUC16^c344 = target: T8, MUC16^c344 (human, N- and O-glycosylation sites ; chain 1 pos 231, 254 and 260 (N1, N24, N30 of c114): N-glycosylated Asn, written N; further N- and O-glycosylation sites in the tandem-repeat part); test: as above
T8 construct: also called MUC16^c344-GFP; SKOV3-c344; not shown: hrGFP of the phrGFP II-C vector, fused at the cytoplasmic carboxy-terminus
T8 chain: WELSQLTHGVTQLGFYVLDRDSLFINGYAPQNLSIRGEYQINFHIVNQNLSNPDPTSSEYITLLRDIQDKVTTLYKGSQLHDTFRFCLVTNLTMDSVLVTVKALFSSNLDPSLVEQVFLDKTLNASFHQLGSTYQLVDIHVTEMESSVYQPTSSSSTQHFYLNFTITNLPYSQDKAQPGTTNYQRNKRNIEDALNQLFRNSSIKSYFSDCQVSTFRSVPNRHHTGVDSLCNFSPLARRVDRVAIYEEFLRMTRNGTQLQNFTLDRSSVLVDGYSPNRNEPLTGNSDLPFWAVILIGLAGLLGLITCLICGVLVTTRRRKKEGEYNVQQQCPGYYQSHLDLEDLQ

MUC16^c80 = target: T9, MUC16^c80; test: as above
T9 construct: also called External Deletion
T9 single chain: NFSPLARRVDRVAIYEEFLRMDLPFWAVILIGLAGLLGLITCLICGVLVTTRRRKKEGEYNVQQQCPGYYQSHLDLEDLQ

MUC16^c114-N3 = target: T10, MUC16^c114-N3 (human, chain 1 pos 1 and pos 24: N-glycosylated Asn (cell-made glycans), written N); test: FACS, SKOV3 transfectant, goat anti-mouse IgG-PE
T10 construct: MUC16^c114 with Asn30 (Asn1806) changed to Ala, on SKOV3 cells; also called N30 mut c114; SKOV3-N30 mutc114; not shown: hrGFP of the phrGFP II-C vector, fused at the cytoplasmic carboxy-terminus
T10 chain: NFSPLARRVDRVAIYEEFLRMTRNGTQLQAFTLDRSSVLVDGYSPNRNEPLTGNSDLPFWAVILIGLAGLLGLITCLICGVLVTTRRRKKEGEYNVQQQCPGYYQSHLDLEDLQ

MUC16^c114-N123 = target: T11, MUC16^c114-N123 (human, All three N-glycosylation sites (pos 1, 24, 30) are mutated to Ala; none is left in the ectodomain.); test: FACS, SKOV3 transfectant, goat anti-mouse IgG-PE
T11 construct: MUC16^c114 with Asn1, Asn24 and Asn30 changed to Ala, on SKOV3 or 3T3 cells; also called N1-N24-N30 mut c114; SKOV3-N1-N24-N30mutc114; not shown: hrGFP of the phrGFP II-C vector, fused at the cytoplasmic carboxy-terminus
T11 chain: T10 chain with N1A, N24A

MUC16^c114-N1 = target: T12, MUC16^c114-N1 (human, chain 1 pos 24 and pos 30: N-glycosylated Asn (cell-made glycans), written N); test: FACS, SKOV3 transfectant, goat anti-mouse IgG-PE
T12 construct: MUC16^c114 with Asn1 (Asn1777) changed to Ala, on SKOV3 cells; also called N1 mut c114; SKOV3 MUC16^c114-N1; not shown: hrGFP of the phrGFP II-C vector, fused at the cytoplasmic carboxy-terminus
T12 chain: T10 chain with N1A, A30N

MUC16^c114-N2 = target: T13, MUC16^c114-N2 (human, chain 1 pos 1 and pos 30: N-glycosylated Asn (cell-made glycans), written N); test: FACS, SKOV3-N24 mutc114
T13 construct: MUC16^c114 with Asn24 (Asn1800) changed to Ala, on SKOV3 cells; also called N24 mut c114; SKOV3-N24 mutc114; not shown: hrGFP of the phrGFP II-C vector, fused at the cytoplasmic carboxy-terminus
T13 chain: T10 chain with N24A, A30N

In the case of 4H11 (antibody), the ELISA signal [1] is reported as 0.02, the ELISA signal [2] is reported as 0.063 and the ELISA signal [3] is reported as 0.038. For the same molecule, the ELISA signal [4] was 0.02, the ELISA signal [5] was 0.06 and the Mean % PE (MUC16^c114 (human) [6]) was 85.7%. For the same molecule, the % 4H11-PE Positives (MUC16^c114 (human) [7]) was 28.4%, the geometric mean phycoerythrin (PE) fluorescence (MUC16^c114 (human) [8]) was 1120 and the geometric mean phycoerythrin (PE) fluorescence [9] was 2380. For the same molecule, the ELISA signal [10] was 0.02, the % 4H11-PE Positives (MUC16^c114 (human) [11]) was 19.3% and the % 4H11-PE Positives (MUC16^c114 (human) [12]) was 51.7%. The ELISA signal (MUC16 18mer [13]) was 0.02, the ELISA signal [14] was 0.045 and the ELISA signal (MUC16 18mer [15]) was 0.076. For the same molecule, the ELISA signal [16] was 0.049.

B1: MUC16^c114 (other)
chain: T10 chain with A30N
modifications: capable of N-glycosylation at Asn1, Asn24 and Asn30 ; chain 1 pos 1, 24, 30: Asn capable of N-glycosylation on the transfected cells, written N
notes: The forward primer adds Met-Val before Asn1; also called MUC16^c114-GFP; SKOV3 MUC16^c114; not shown: hrGFP of the phrGFP II-C vector fused at the cytoplasmic carboxy-terminus, with its short cloning linker
B1: no binding [17]; no binding [18].

B2: 16C5.C1 (antibody, V domains shown)
VH: QVTLKESGPGILQPSQTLSLTCSFSGFSLNTLGMGVGWIRQPSGKGLEWLAHIWWDDDKYYYPALKSRLTISRDTSKNQVFLKIANVDTADTATYYCARIGTAQATDALDYWGQGTSVTVSS
VL: ELDMTQTPPSLSASVGETVRIRCLASEDIYSGISWYQQKPGKPPTLLIYGASNLESGVPPRFSGSGSGTDYTLTIGGVQAEDAATYYCLGGYSYSSTLTFGAGTNVEIK
notes: Mouse monoclonal from a hybridoma
For B2, the ELISA signal [19] was 0.68, the ELISA signal (MUC16 18mer [20]) was 0.24 and the ELISA signal (MUC16 18mer [21]) was 0.63. The Kd [22] was 25.7 nM, the koff [22] was 0.00172 s⁻¹ and the ELISA signal [23] was 0.23. The ELISA signal [24] was 0.62 and the ELISA signal [25] was 0.36.

B3: 4H11 (antibody, V domains shown)
VH: EVKLQESGGGFVKPGGSLKVSCAASGFTFSSYAMSWVRLSPEMRLEWVATISSAGGYIFYSDSVQGRFTISRDNAKNTLHLQMGSLRSGDTAMYYCARQGFGNYGDYYAMDYWGQGTTVTVSS
VL: DIELTQSPSSLAVSAGEKVTMSCKSSQSLLNSRTRKNQLAWYQQKPGQSPELLIYWASTRQSGVPDRFTGSGSGTDFTLTISSVQAEDLAVYYCQQSYNLLTFGPGTKLEVK
With B3 the ELISA signal [26] was 2.14, the “% 4H11-PE Positives” value (MUC16^c86) was 27.4% and the “% 4H11-PE Positives” value (MUC16^c344) was 34.4%. For the same molecule, the “% 4H11-PE Positives” value (MUC16^c80) was 16.7%, the “Mean % PE” value (MUC16^c114-N3) was 15.6% and the “Mean % PE” value (MUC16^c114-N123) was 32.3%. For the same molecule, the “Mean % PE” value (MUC16^c114-N1) was 91.5% and the “geometric mean phycoerythrin (PE) fluorescence” value (MUC16^c114-N2) was 2650.
